The nature of the data set: yeast display, Sf9 membrane polyspecificity reagent, FACS + sequencing; frameworks hold sequencing errors. In a few lines:
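Synthetic nanobody libraries on Saccharomyces cerevisiae BJ5465 were galactose-induced for 36–48 hours, stained 1 hour at 4 °C with 10% biotinylated, detergent-solubilized Sf9 membrane reagent and enriched on streptavidin microbeads. FACS then separated cells into low and high (top ~1%) gates by anti-HA (expression) and streptavidin (reagent binding) fluorescence. Genes were colony-PCR amplified, MiSeq 2 × 250 sequenced and CDR-length filtered. A clone's polyreactivity label is that of its gate of origin.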
Turning to “QVQLVESGGGLVQAGGSLRLSCADSGFTFTYYAMGWYRQAPGKERELVAGITRSGGSTYYADSVKGRFTISRDTAKNTVYLQMNSLKPEDTAVYYCAVKFVRYRQGIVLYDYWGQGTQVTVSS”, the “polyreactivity (PSR sort gate)” value is “high polyreactivity”. Then “QVQLVESGGGLVQAGGSLRLSCADSGITFYEFGMGWYRQAPGKERELVAAITTDGRTNYADSVKGRFTISRDNATNTVYLQMNILKPEDTAVYYCAVVHYFWGFYSVDYWGQGTQETVSS”, with “high polyreactivity”; and “QVQLVESGGGLVQAGGSLRLSCADSGLIIARNAMVWYRHAPGTERELVAAITRGGSTYYADSVKGSFTISRDNAKNTVYLLMNSLKPEDTAVYYCNARFRRYYYYGMDYWGQGTQVTVSS”, with “high polyreactivity”. In the case of “QVQLVESGGGLVQAGGSLRLSCADSGNIFNYYAMGWYRQAPGKERELVAAISTSGGRTYYADSVKGRFTISRDNAKNTVYLQMNSLKPEDTAVYYCAKVNRLYTYDYWGQGTQVTVSS”, the “polyreactivity (PSR sort gate)” value is recorded as “high polyreactivity”. Then “QVQLVESGGGLVQAGGSLRLSCADSGNILGYNAMGSYRQAPGKATELVAAISDNADSTYYADSVKGRFTISRDNAKNTVYLQMKSLKPEDTAVYYGAADWVHRTWLFWYTKYDYWGQGTQVTVSS”, with “low polyreactivity”; and “QVQLVESGGGLVQAGGSLRLSCADSGNTFSYYAMGWYRQAPGKEREFVAAIRKSGASTYYADSVKGRFTISRDNAKNTVYLEMNSLKPEDTAVYYCAADGQVSYALGFDYCGQGTQVTVSS”, with “high polyreactivity”; and “QVQLVESGGGLVQAGGSLRLSCADSGNTLSYYVMGWYRQAPGKERELVADITSGGTTNYADSVKGRFTISRDNAKNTVYLQMNSLKAEDTAVYYCAAGPYKRPPWLRQGGYDYWGQGTQVTVSS”, with “low polyreactivity”. Then “QVQLVESGGGLVQAGGSLRLSCADSGPTIFYYAMGWYRTAPGKERELVAAIRRSGGRTRYADSVKGRFTISRDNAKNTVYLQMNSLKPEDTAVYYCAADDGTHRRGYDYWGQGTQVTVSS”, with “low polyreactivity”. Turning to “QVQLVESGGGLVQAGGSLRLSCADSGRIFDLNAMGWYRQAPGKERELVAAITWSGDSTYYADSVKGRFTISRDNAKNTVYLQMNSLKPEDTAVYYCAAASRTSYSWVDYEFDYWGQGTQVTVSS”, the “polyreactivity (PSR sort gate)” value was “low polyreactivity”. In the case of “QVQLVESGGGLVQAGGSLRLSCADSGRIFGRYAMGWYRQAPGKERDLVAAIRSGGSTYYADSVKGRFTISRDNAKNSVYLQMNSLKPEDTAVYYCAADWGPFRLGYGYYYWGQGTQVTVSS” it was “high polyreactivity”.

Turning to “QVQLVESGGGLVQAGGSLRLSCADSGRIFGSNAMGWYRQAPGKERELVAAISWRGASTYYADSVKGRFTISRDNAKNTVYLQMNSLKPEDTAVYYCATRGQTRTTTRYYSWGQGTQVTVSS”, the “polyreactivity (PSR sort gate)” value is recorded as “high polyreactivity”. Then “QVQLVESGGGLVQAGGSLRLSCADSGRIIQYNAMGWYRQAPGKERDLDAAISYRGGSTYYADSVKGRYTISRDNAKNTVYLQMNSLKPEDTAVYYCAVEYPVYYYVEYDYWGQGTQVTVSS”, with “high polyreactivity”. In the case of “QVQLVESGGGLVQAGGSLRLSCADSGRNFYIYAMGWYRKAPGKERELVAAISISGSTYYADSVKGRFTISRDNAKNTVFLQMNSLKPEDTAVYYCAARDPGVAVGAAFDSWGQGTQVTVSS”, the “polyreactivity (PSR sort gate)” value is on record as “low polyreactivity”. In the case of “QVQLVESGGGLVQAGGSLRLSCADSGRNFYYYAMGWYRQAPGKERELVAAITSGGRTNYADSVKGRFTISRDNAKNNVYLQMNSLKPEDTAVYYGAATSKYKVRYSRYYYWGQGTQVTVSS” it was “high polyreactivity”; in that of “QVQLVESGGGLVQAGGSLRLSCADSGRTFFYNGMGWYRQAPGKERELVAAISGSGSRTYYADSVKGRFTISRDNAKNTVYLQMNSLKPEDTAVYYCAATRVISHYRFDYWGQGTQVTVSS”, “high polyreactivity”. In the case of “QVQLVESGGGLVQAGGSLRLSCADSGRTFGGYAMGWYRQAPGKQRELVASITWSGGSTYYADSVKGRFTISRDNAKNNVYLQMNSLKPEDTAVYYCGARTYQSRSTRMDYWGQGTQVTVSS” it was “low polyreactivity”. In the case of “QVQLVESGGGLVQAGGSLRLSCADSGRTFKYYAMGWYRQAPGKARELVAAIRSTGGSKYYADSVKGRFTISRDNAKNTVYLQMNSLKPEDTAVYYCNARRYPRYVFSRYDYWGQGTQVTVSS” it was “high polyreactivity”; in that of “QVQLVESGGGLVQAGGSLRLSCADSGRTFNYYDMGWYRQAPGKERELVASITGSGGNTYYADSVKGRFTFSRDNAKNTVYLQMNSLKPEDTAVYYCAKAIGNFLYYYWLYHSSYEYDYWGQGTQVTVSS”, “low polyreactivity”. Consider “QVQLVESGGGLVQAGGSLRLSCADSGRTFRANAMGWYRQAPGKERELVAAITSTGDRTYYADSVKGRFTISRDNAKNTVYLQMNSLKPEDTAVYYGNAVYDLYHYWKFYYWGQGTQVTVSS”, for which the “polyreactivity (PSR sort gate)” value is “low polyreactivity”.

In the case of “QVQLVESGGGLVQAGGSLRLSCADSGRTFRIYAMGWYRQAPGKERELVARITKRAGSTYYADSVKGRFTISRDNAKNTVYLQMNSLKPEDTAVYYCAATHYQWRGRYGYWRQGTQVTVSS”, the “polyreactivity (PSR sort gate)” value is “high polyreactivity”. For “QVQLVESGGGLVQAGGSLRLSCADSGRTFRYYAMGWYRQAPGKERELVAAITSGGSTYYADSVKGRFTISRDNAKNTVYLQMNSLKPEDTAVYYCAAARYEPFIYDYGYWGQGTQVTVSS”, the “polyreactivity (PSR sort gate)” value is “low polyreactivity”. In the case of “QVQLVESGGGLVQAGGSLRLSCADSGRTFWSNSMGWYRQAPGKERELVARIDSTYYADSVKGRFTISRDNAKNTVYLQMNSLKPEDTAFYYCNADTIYYAGDFRYDYWGQGTQVTVSS” it was “low polyreactivity”; in that of “QVQLVESGGGLVQAGGSLRLSCADSGRTFYHDTMGWYRQAPGKERELVARITRRVGSTYYADSVKGRFTISRDNAKNTVYLQMNSLKPEDTAVYYCNAKSGLYRYLLDYWGQGTQVTVSS”, “high polyreactivity”.

For “QVQLVESGGGLVQAGGSLRLSCADSGRTFYSYAMGWYRQAPGKERELVAAISASGGRTYYADSVKGRFTISRDNAKNTVYLQMNSLKPEDTAVYYCAAYVSGYRWGYDYWGQGTQVTVSS”, the “polyreactivity (PSR sort gate)” value is recorded as “high polyreactivity”. Then “QVQLVESGGGLVQAGGSLRLSCADSGRTIYSNAMGWNIQAPGKERELVAAITGSSGSTYYADSVKGRFTISRDNAKNTVYLQMYSLKPEDTAVYYCAASCYGSLVRQLRLRGQGTQVTVSS”, with “low polyreactivity”. Then “QVQLVESGGGLVQAGGSLRLSCADSGSIFGINTMGWYRQAPGKERELVAAITFGGGSTYYADSVKGRFTISRDNAKNTVYLQMNSLKPEDTAVYYCNRLGVYWVGTEFDYWGQGTQVTVSS”, with “low polyreactivity”; and “QVQLVESGGGLVQAGGSLRLSCADSGSIFGVYTRGWYSQAPGKERELVAAISGSGGSTYYADSVMGRFTISRDNAKNTVYFQMNSLIPEDTGVDYCATRFPNIPPYDSWGQGTQVTVSS”, with “low polyreactivity”; and “QVQLVESGGGLVQAGGSLRLSCADSGSIFGYNAMGWYRQAPGKEREFVAAISWSGGRTYYADSVKGRFTISRDNAKNTVYLQMNSLKPEDTAVYYCAAPSRPAPRFDYWGQGTQVTVSS”, with “low polyreactivity”. For the sequence “QVQLVESGGGLVQAGGSLRLSCADSGSIFLFNAMGWYRQAPGKERELVAAINRDDSTYYADSVKGRFTISRDNAKNTVYLQMNSLKPEDTAVYYCAAPVLHASYGYGYWGQGTQVTVSS”, the “polyreactivity (PSR sort gate)” value is on record as “low polyreactivity”. Then “QVQLVESGGGLVQAGGSLRLSCADSGSIFNGNTMGWYRQAPGKERELVAAITSGGRTYYADSVKGRFTISRDNAKNTVYLQMNSLKPEDTAVYYCATRNPYYRSYYSYDYWGQGTQVTVSS”, with “high polyreactivity”.
